# In paper PMC4784309, “Substrate specificity and function of acetylpolyamine amidohydrolases from Pseudomonas aeruginosa” (BMC Biochemistry, 2016):
# Experiments:
# [1] = system: CC(=O)NCCCC[C@H](NC(=O)OC(C)(C)C)C(=O)Nc1ccc2c(C)cc(=O)oc2c1; assay: purified protein; conditions: pH 8, 30 °C, 20 mM Tris-HCl, 50 mM NaCl
# [2] = system: Cc1cc(=O)oc2cc(NC(=O)[C@H](CCCCNC(=O)C(F)(F)F)NC(=O)OC(C)(C)C)ccc12; assay: purified protein; conditions: pH 8, 30 °C, 20 mM Tris-HCl, 50 mM NaCl
# [3] = substrate: CC(=O)NCCCCCN; assay: diamine oxidase coupled colorimetric assay; assay type: biochemical, Pseudomonas aeruginosa; conditions: pH 7.4, 21 °C, 100 mM HEPES
# Excerpt: (§1) diamine oxidase coupled colorimetric assay on PA0321
# [4] = substrate: CC(=O)NCCCCN; assay: diamine oxidase coupled colorimetric assay; assay type: biochemical, Pseudomonas aeruginosa; conditions: pH 7.4, 21 °C, 100 mM HEPES
# Excerpt: as §1
# purified protein = substrate: Cc1cc(=O)oc2cc(NC(=O)[C@H](CCCCNC(=O)C(F)(F)F)NC(=O)OC(C)(C)C)ccc12; assay: purified protein; conditions: pH 8, 30 °C, 20 mM Tris-HCl, 50 mM NaCl; remark: listed apart in the source
# [5] = substrate: CC(=O)NCCCCCN; assay: diamine oxidase coupled colorimetric assay; assay type: biochemical, Pseudomonas aeruginosa; conditions: pH 7.4, 21 °C, 100 mM HEPES; remark: listed apart in the source
# Excerpt: (§2) diamine oxidase coupled colorimetric assay on PA1409
# [6] = substrate: CC(=O)NCCCCN; assay: diamine oxidase coupled colorimetric assay; assay type: biochemical, Pseudomonas aeruginosa; conditions: pH 7.4, 21 °C, 100 mM HEPES; remark: listed apart in the source
# Excerpt: as §2
Molecule,Km [1] [µM],Km (purified protein) [µM],further results
HDAH (Alcaligenaceae bacterium FB188),26 ± 4,–,Vmax [1]: 0.0258 µmol/min/mg; Km [2]: 7.2 ± 1.1 µM; Vmax [2]: 0.0138 µmol/min/mg
PA0321 (Pseudomonas aeruginosa PAO1),22 ± 10,–,–
PA1409 (Pseudomonas aeruginosa PAO1),223 ± 12,–,–
PA3774 (Pseudomonas aeruginosa PAO1),95 ± 7,–,–
"PA0321 (Pseudomonas aeruginosa PAO1) (protein, recombinant, E. coli expressed, produced as described before [30]) MLTIYSDDHRLHHGRHELIGGQFTPCFEKPSRADMVLDRVKAVGLGEVRAPRDFGLEPIRRVHSEGFVRFLQNAWQDWLATGRSHDMLPIAWPTRRLRQTEPDNIDGRLGYYSFDAGAPITAGTWQAITSSANVALSGQSELANGARSVFSLCRPPGHHAAADYMGGYCFFNNAAIAAQAFLDRGAGRVAILDVDYHHGNGTQDIFYDRADVLFTSIHGDPRFEYPYFLGYADEKGNGVGTGYNFNYPLAAGSDWATWSQALQAAIRQIQAYAADALIVSLGVDTFKEDPISQFRLDSPDYLRMGEAIGKLGLATLFVMEGGYAVEEIGINAVNVLQGFEGVHR",–,11 ± 1,Km [3]: 284 ± 39 µM; Km [4]: 411 ± 34 µM
"PA1409 (Pseudomonas aeruginosa PAO1) (protein, recombinant, E. coli expressed, produced as described before [30]) MLSVYSDDHRLHFGQSELVDGKLQPCFEMPSRADTVLARVKSQNLGEVIAPKDFGREPLLRLHDAAYLDFLQGAWARWTAEGHSGDLVSTTFPGRRLRRDGPIPTALMGELGYYSFDTEAPITAGTWQAIYSSAQVALTAQEHMRQGARSAFALCRPPGHHAGGDFMGGYCFLNNAAIATQAFLDQGARRVAILDVDYHHGNGTQDIFYRRDDVLFASIHGDPRVEYPYFLGYADERGEGAGEGCNHNYPLAHGSGWDLWSAALDDACVRIAGYAPDALVISLGVDTYKEDPISQFRLDSPDYLRMGERIARLGLPTLFIMEGGYAVEAIGINAVNVLQGYEGAAR",–,84 ± 15,Km [5]: 465 ± 53 µM; Km [6]: 503 ± 60 µM
PA3774 (Pseudomonas aeruginosa PAO1) (protein) MTRRTAFFFDELCLWHAAGPHALTLPVGGWVQPPAAAGHAESPETKRRLKSLLDVSGLTARLQLRSAPPASDEDLLRVHPAHYLERFKALSDAGGGSLGQDAPIGPGSYEIARLSAGLAIAALDAVLAGEADNAYSLSRPPGHHCLPDQAMGFCFFANIAVAIEAAKARHGVERVAVLDWDVHHGNGTQAIYYRRDDVLSISLHQDGCFPPGYSGAEDIGEDRGRGFNLNVPLLPGGGHDAYMQAMQRIVLPALERFRPQLIVVASGFDANAVDPLARMQLHSDSFRAMTAMVRDAAERHAGGRLVVVHEGGYSEAYVPFCGLAVIEELSGVRSAVRDPLRDFIELQQPNAAFRDFQRQRLEELAAQFGLCPAQPLQAAR,–,21 ± 2,–
